Values quoted from earlier work, collected in PMC8773166.

Target: calmodulin (UniProt P0DP23)

Which Kd does the source give for “NCX1 XIP peptide XIP (from UniProt P32418)” here?
The Kd was 200 nM.
